No end group written: not given here.
Target: mucin molecule associated with epithelial tumours (Homo sapiens (Human), UniProt P15941)
Experiment: synthetic CDR peptides of NM-2 VH; method not told at this place

REPPTRTFAYWG (also: I125 label, position not given here) [peptide REPPTRTFAYWG]
binding result: binds
